Data from ChEMBL document CHEMBL1157152, “Kinetic parameters and recognition of thymidine analogues with varying functional groups by thymidine phosphorylase” (Bioorg Med Chem, 2008).

Experiments:
[1] = substrate: Cc1cn([C@H]2C[C@H](O)[C@@H](C)O2)c(=O)[nH]c1=O; assay: (§1) Activity of Escherichia coli thymidine phosphorylase
[2] = substrate: Cc1cn([C@H]2CC[C@@H](CO)O2)c(=O)[nH]c1=O; assay: as §1
[3] = substrate: Cc1cn([C@H]2C[C@H](O)[C@@H](CO)O2)c(=O)[nH]c1=O; assay: as §1

B1: Thymidine phosphorylase (Escherichia coli K-12), P07650 (protein)
chain: MFLAQEIIRKKRDGHALSDEEIRFFINGIRDNTISEGQIAALAMTIFFHDMTMPERVSLTMAMRDSGTVLDWKSLHLNGPIVDKHSTGGVGDVTSLMLGPMVAACGGYIPMISGRGLGHTGGTLDKLESIPGFDIFPDDNRFREIIKDVGVAIIGQTSSLAPADKRFYATRDITATVDSIPLITASILAKKLAEGLDALVMDVKVGSGAFMPTYELSEALAEAIVGVANGAGVRTTALLTDMNQVLASSAGNAVEVREAVQFLTGEYRNPRLFDVTMALCVEMLISGKLAKDDAEARAKLQAVLDNGKAAEVFGRMVAAQKGPTDFVENYAKYLPTAMLTKAVYADTEGFVSEMDTRALGMAVVAMGGGRRQASDTIDYSVGFTDMARLGDQVDGQRPLAVIHAKDENNWQEAAKAVKAAIKLADKAPESTPTVYRRISE
B1 was tested, and the Km [1] was 10 mM, the Vmax [1] was 3.4 mM/min and the Km [2] was 32 mM. The Vmax [2] was 0.014 mM/min, the Km [3] was 2.5 mM and the Vmax [3] was 5.2 mM/min.
